Results from publication PMC12699829, “Development of a glutamine-responsive MRI contrast agent” (Chemical Science, 2025).
Numbering of substitutions follows the chain as printed. Numbers in names are those of the source. Read-outs that look alike come from different tables or passages of the source.

B1: [Dy(DOTA-mal^N)]72-N127Y: swArM: Dy(DOTA-mal^N) on T72C/N127Y double variant of GlnBP (conjugate, UniProt P0AEQ3 23-248, looked up, variant T72C N127Y)
Glutamine-binding periplasmic …: ADKKLVVATDTAFVPFEFKQGDKYVGFDVDLWAAIAKELKLDYELKPMDFSGIIPALQTKNVDLALAGITICDERKKAIDFSDGYYKSGLLVMVKANNNDVKSVKDLDGKVVAVKSGTGSVDYAKAYIKTKDLRQFPNIDNAYMELGTNRADAVLHDTPNILYFIKTAGNGQFKAVGDSLEAQQYGIAFPKGSDELRDKVNGALKTLRENGTYNEIYKKWFGTEPK
modifications: Dy(DOTA-malN) at Cys72
notes: swArM: Dy(DOTA-mal^N) on T72C/N127Y double variant of GlnBP
B2: [Dy(DOTA-mal^N)]72-A126Y: swArM: Dy(DOTA-mal^N) on T72C/A126Y double variant of GlnBP (conjugate, UniProt P0AEQ3 23-248, looked up, variant T72C A126Y)
Glutamine-binding periplasmic …: B1 Glutamine-binding periplasmic … with A126Y, Y127N
modifications: Dy(DOTA-malN) at Cys72
notes: swArM: Dy(DOTA-mal^N) on T72C/A126Y double variant of GlnBP
B3: [Dy(DOTA-malN)]72-A126D: swArM: Dy(DOTA-mal^N) on T72C/A126D double variant of GlnBP (conjugate, UniProt P0AEQ3 23-248, looked up, variant T72C A126D)
Glutamine-binding periplasmic …: B1 Glutamine-binding periplasmic … with A126D, Y127N
modifications: Dy(DOTA-malN) at Cys72
notes: swArM: Dy(DOTA-mal^N) on T72C/A126D double variant of GlnBP
B4: [Gd(NOTA)mal^N)]72-GlnBP: swArM: Gd complex of maleimide-functionalized NOTA attached at Cys72 of T72C-GlnBP (conjugate, UniProt P0AEQ3 23-248, looked up, variant T72C)
Glutamine-binding periplasmic …: B1 Glutamine-binding periplasmic … with Y127N
modifications: Gd(NOTA-mal) at Cys72
B5: [Gd(DTPA-malN)]72: swArM: Gd complex of maleimide-functionalized DTPA attached at Cys72 of T72C-GlnBP (conjugate, UniProt P0AEQ3 23-248, looked up, variant T72C)
Glutamine-binding periplasmic …: B1 Glutamine-binding periplasmic … with Y127N
modifications: Gd(DTPA-mal) at Cys72
notes: swArM: Gd complex of maleimide-functionalized DTPA attached at Cys72 of T72C-GlnBP
B6: [Dy(DOTA-malN)]72-Q183Y: swArM: Dy(DOTA-mal^N) on T72C/Q183Y double variant of GlnBP (conjugate, UniProt P0AEQ3 23-248, looked up, variant T72C Q183Y)
Glutamine-binding periplasmic …: B1 Glutamine-binding periplasmic … with Y127N, Q183Y
modifications: Dy(DOTA-malN) at Cys72
notes: swArM: Dy(DOTA-mal^N) on T72C/Q183Y double variant of GlnBP

Legend:
Type in all cases: physicochemical
[1] = T1 and T2 relaxivity measurements at 9.4 T (400 MHz NMR)
Procedure: The effectiveness of a contrast agent depends on its “relaxivity”, which is measured in units of mM^−1 s^−1, and quantifies how much a given concentration of the contrast agent improves water relaxation rates. T1 and T2 relaxivities are denoted r1 and r2, respectively, and are calculated according to eqn (1):1 [drawing 1] Here, Ti and Ti^0 are the relaxation times in the presence and absence of the contrast agent, respectively, and [C] is the concentration of the contrast agent. […] The relaxivity of a contrast agent depends not only on the properties of the molecule but also on the strength of the magnetic field used for the measurement. Whereas early MRI instruments were relatively weak (<1 T), the modern clinical standard has risen to 1–3 T, wth an increasing number of even more powerful instruments (>3 T) in recent years. Thus, we performed relaxivity experiments at both the most clinically relevant field strengths 1.4 T and at the more cutting-edge field strength of 9.4 T.
10% D 2O (assay buffer). S tock solutions of swArM in assay buffer was prepared at1.11, 0.83, 0.56, and 0.28 mM. Apo- and holo-swArM samples were prepared from the same stock by adding either 20 μL assay buffer or 20 μL 0. 1 M Gln in assay buffer, to 180 μL of protein solution, respectively. Final protein concentrations were verified using the molar extinction coefficient ε28 0 = 25.9 mM -1 cm -1.
B. NM R M easu r ements . Relaxivities of all variants were determined at 37 °C from spectra taken at 9.4 T (400 mHz) using a Varian Inova 400 -MHz NMR spectrometer equipped with a Nalorac, 5 mm, DR probe. Select variants were also investigated at 32°C at 1.4 T (60 mHz) using a Nanalysis NMReady60 Pro instrument. Measurements were typically performed on 4 diffe rent concentrations of contrast agent and on the same buffer with no contrast agent. Temperature- dependent relaxivity measurements were performed using a Varian Inova 500-MHz NMR spectrometer, equipped with a Vari an, 5-mm, TR PFG probe with inverse proton detection. Temperature- dependent relaxivity was determined using either two concen trations of contrast agent ( 0. 5 and 1. 0 mM ) or t hree (0. 3, 0. 6, and 0.9 mM) . The temperature was calibrated using the 1H NMR signal of ethylene glycol.20 T1 measurements were performed using the inversion recovery method21 and T2 measurements were performed using the Carr–Purcell–Meiboom –G ill (CPMG) p ulse […]
Six or more pulse delay times (τ) were chosen to ensure coverage of the Ti under observation, and the delay between pulse sequences was set to at least 5-times T1.
Optimized 90° and 180° pulse widths were determined on the day of the experiment, and typically spanned 16‒2 0 μs (90° pulse width) and 32‒4 0 μs (180° pulse width). The delay in the CPMG pulse sequence was set to at least 50 times the 180° pulse width to allow at least four echo loops .
C. A n al ysi s . To determine Ti, data were analyzed via MestReNova software. For each spectrum, an integration was performed over the water peak, and the values obtained (dependent variable) were plotted against τ (independent variable). […]
then fit to a monoexponential decay according to Eq. 1. From these analyses, we obtain Ti for each sample concentration and type.
The quantity described by Eq. 2, where Ti at zero added sample is T0, was then plotted against the swArM concentration and a linear regression model was applied. The slope of this line gives the contrast agent relaxivity ri.

[2] = Stability of swArM samples prepared in PBS buffer for relaxivity studies
Description: Next, we set out to investigate alternative ligands to coordinate Ln^3+ ions. As shown in Chart 1, we investigated two DOTA derivatives (DOTA-mal^N and DOTA-mal^C) as well as an acyclic version of DOTA, diethylene triamine pentaacetic acid (DTPA), and a six-coordinate version of the eight-coordinate DOTA ligand, nonane triacetic acid (NOTA). […] This ligand has previously been tested with Gd^3+ as an MRI contrast agent in PBS buffer, with no reported stability issues.[40] The fact that conjugation to our protein decreased the kinetic stability of Gd(NOTA) exemplifies the impact of the specific protein environment.

[3] = T1 and T2 relaxivity measurements at 1.4 T (60 MHz NMR)
[4] = PBS buffer pH 7.4, 37 °C, with Gln
[5] = PBS buffer pH 7.4, 37 °C, without Gln
[6] = PBS buffer pH 7.4, 32 °C, with Gln
[7] = PBS buffer pH 7.4, 32 °C, without Gln

Row | Molecule | Holo/Apo % r2 Change ([1]; 37 °C) | r2 (Holo) [1, 4] | r2 (Apo) [1, 5] | further results
1 | B1 | 40 ± 7% | 9.1 ± 0.2 mM⁻¹ s⁻¹ | 6.5 ± 0.3 mM⁻¹ s⁻¹ | –
2 | B2 | 58 ± 6% | 10.8 ± 0.2 mM⁻¹ s⁻¹ | 6.8 ± 0.2 mM⁻¹ s⁻¹ | –
3 | B3 | 23 ± 5% | 11.7 ± 0.09 mM⁻¹ s⁻¹ | 9.5 ± 0.3 mM⁻¹ s⁻¹ | –
4 | B4 | – | – | – | stability of the swArM in PBS buffer (metal loss, precipitate) ([2]; PBS buffer): precipitate formation
5 | B5 | 10 ± 10% | 72 ± 4 mM⁻¹ s⁻¹ | 65 ± 4 mM⁻¹ s⁻¹ | Holo/Apo % r1 Change ([1]; 37 °C): 3 ± 3%; r1 (Holo) [1, 4]: 4.14 ± 0.05 mM⁻¹ s⁻¹; r1 (Apo) [1, 5]: 4.0 ± 0.1 mM⁻¹ s⁻¹; Holo/Apo % r1 Change ([3]; 32 °C): 7 ± 4%; Holo/Apo % r2 Change ([3]; 32 °C): 11 ± 6%; r1 (Holo) [3, 6]: 17.8 mM⁻¹ s⁻¹; r2 (Holo) [3, 6]: 30.3 ± 0.9 mM⁻¹ s⁻¹; r1 (Apo) [3, 7]: 16.7 mM⁻¹ s⁻¹; r2 (Apo) [3, 7]: 27 ± 1 mM⁻¹ s⁻¹; stability of the swArM in PBS buffer (metal loss, precipitate) [2]: did not observe loss of metal to solution over time
6 | B6 | 29 ± 4% | 18.0 ± 0.4 mM⁻¹ s⁻¹ | 14.0 ± 0.1 mM⁻¹ s⁻¹ | –
